Source: patent US20110086767A1, “MUTANTS OF GLYCOSIDE HYDROLASES AND USES THEREOF FOR SYNTHESIZING COMPLEX OLIGOSACCHARIDES AND DISACCHARIDE INTERMEDIATES” (Institut Pasteur, priority 2008, published 2011)
Entries after “also recorded” stand apart in the source; their conditions may differ.

Columns and labels:
Type in all cases: biochemical
[1] = Kinetics of F290K and ASNPwt towards sucrose
Description: Enzyme assays were carried out in a total volume of 2 mL containing pure enzyme (0.115 mg and 0.106 mg when using ASNPwt and F290K, respectively). Catalytic efficiency (Eff=kcat/KM) of ASNPwt and F290K variant was determined with both sucrose (D=Donor) and α-D-GlcpNAc-OAll (A=Acceptor) as variable substrates. […] For the determination of the catalytic efficiency for A, D was held constant at 250 mM and A was varied between 0 and 250 mM. Experiments were performed until A and D solubility limits were reached. For each experiment, the reaction velocity corresponding to the acceptor glucosylation was determined by the formation of α-D-Glcp-(1→4)-α-D-GlcpNAc-OAll (called Vi(Dp2)), corresponding to the kinetics of the reaction of interest.
(§1) Initial velocities were fitted to the Michaelis-Menten equation using Sigma-Plot. As saturation was not achieved with the mutant, efficiency was calculated by linear regression analysis of the velocity versus substrate concentration plot. Aliquots (200 μL) were removed between 0 and 60 min (at which time product formation was still linear with respect to time), heated at 95° C. for 5 min and centrifuged at 18 000 g for 5 min. The final mixtures were filtered on a 0.22 um membrane and analyzed using HPLC material previously described. […]

[2] = Kinetics of F290K and ASNPwt in the presence of acceptor α-D-GlcpNAc-OAll
Description: Enzyme assays were carried out in a total volume of 2 mL containing pure enzyme (0.115 mg and 0.106 mg when using ASNPwt and F290K, respectively). Catalytic efficiency (Eff=kcat/KM) of ASNPwt and F290K variant was determined with both sucrose (D=Donor) and α-D-GlcpNAc-OAll (A=Acceptor) as variable substrates. For the determination of the catalytic efficiency for D, A was held constant at 250 mM and D was varied between 0 and 600 mM. For the determination of the catalytic efficiency for A, D was held constant at 250 mM and A was varied between 0 and 250 mM. Experiments were performed until A and D solubility limits were reached. For each experiment, the reaction velocity corresponding to the acceptor glucosylation was determined by the formation of α-D-Glcp-(1→4)-α-D-GlcpNAc-OAll (called Vi(Dp2)), corresponding to the kinetics of the reaction of interest.
as §1

[3] = Enzymatic glucosylation of D-GlcpNAc derivatives: D-GlcNHTCA; conditions: sucrose:acceptor 1:1 (146 mM); estimated according to peak areas
Description: (§2) The mutant F290K and the ASNPwt were tested on other D-GlcNAc derivatives (α-D-GlcpNAc-OMe, β-D-GlcpNAc-OMe, β-D-GlcpNAc-Oallyl and D-GlcNHTCA) used as potential acceptors. The enzymatic reaction was carried out using sucrose as donor and D-GlcNAc derivative as acceptor in a 1:1 ratio (146 mM)
(§3) Efficiency of the glucosylation reaction was evaluated by HPLC analysis of the acceptor reaction product synthesized a Biorad HPLC Carbohydrate Analysis column (HPX-87K column (300×7.8 mm))
(§4) Percentages of glucosylation rates were estimated according to peak areas as no reference was available.

[4] = Kinetic parameters towards α-D-GlcpNAc-OAll acceptor; conditions: 250 mM for both sucrose and α-D-GlcpNAc-OAll
Description: Enzyme assays were carried out in a total volume of 2 mL containing pure enzyme (0.037 mg, 0.076 mg and 0.046 mg when using A289P-F290C, A289P-F2901 and A289P-F290L, respectively).
The kcat/Km (α-D-GlcpNAc-OAll) value was calculated from the initial rate of formation of desired disaccharide (α-D-Glcp-(1→4)-α-D-GlcpNAc-OAll), corresponding to the initial rate of α-D-GlcpNAc-OAll consumed. As saturation was not achieved with the mutants, efficiency was calculated by linear regression analysis of the velocity versus substrate concentration plot.

[5] = Enzymatic glucosylation of D-GlcpNAc derivatives: β-D-GlcpNAc-OMe; conditions: sucrose:acceptor 1:1 (146 mM); estimated according to peak areas
Description: as §2, §3, §4

[6] = Enzymatic glucosylation of D-GlcpNAc derivatives: β-D-GlcpNAc-OAll; conditions: sucrose:acceptor 1:1 (146 mM); estimated according to peak areas
Description: as §2, §3, §4

[7] = Enzymatic glucosylation of D-GlcpNAc derivatives: α-D-GlcpNAc-OMe; conditions: sucrose:acceptor 1:1 (146 mM); estimated according to peak areas
Description: as §2, §3, §4

[8] = Kinetic parameters towards sucrose donor
Description: Enzyme assays were carried out in a total volume of 2 mL containing pure enzyme (0.073 mg, 0.153 mg and 0.092 mg when using A289P-F290C, A289P-F2901 and A289P-F290L, respectively).
Kinetic studies of AS variants were performed in the presence of sucrose (0-500 mM). At regular time intervals (2-5 min), aliquots (200 μL) were removed, heated (95° C., 2 min) and centrifuged (18000 g, 5 min) All the samples were filtered on a 0.22 μm membrane and analyzed using HPLC material previously described. The initial rate of sucrose consumed, corresponding to the initial rate of fructose released, was expressed in mole of fructose released per minute and per gram of enzyme. The kinetic parameters kcat and Km were calculated using Eadie-Hofstee plot.

B1: F290K: single mutant F290K of N. polysaccharea amylosucrase 1G5A (protein)
chain: SPNSQYLKTRILDIYTPEQRAGIEKSEDWRQFSRRMDTHFPKLMNELDSVYGNNEALLPMLEMLLAQAWQSYSQRNSSLKDIDIARENNPDWILSNKQVGGVCYVDLFAGDLKGLKDKIPYFQELGLTYLHLMPLFKCPEGKSDGGYAVSSYRDVNPALGTIGDLREVIAALHEAGISAVVDFIFNHTSNEHEWAQRCAAGDPLFDNFYYIFPDRRMPDQYDRTLREIFPDQHPGGFSQLEDGRWVWTTFNSFQWDLNYSNPWVFRAMAGEMLFLANLGVDILRMDAVAKIWKQMGTSCENLPQAHALIRAFNAVMRIAAPAVFFKSEAIVHPDQVVQYIGQDECQIGYNPLQMALLWNTLATREVNLLHQALTYRHNLPEHTAWVNYVRSHDDIGWTFADEDAAYLGISGYDHRQFLNRFFVNRFDGSFARGVPFQYNPSTGDCRVSGTAAALVGLAQDDPHAVDRIKLLYSIALSTGGLPLIYLGDEVGTLNDDDWSQDSNKSDDSRWAHRPRYNEALYAQRNDPSTAAGQIYQDLRHMIAVRQSNPRFDGGRLVTFNTNNKHIIGYIRNNALLAFGNFSEYPQTVTAHTLQAMPFKAHDLIGGKTVSLNQDLTLQPYQVMWLEIA
[1]; sucrose alone, compared with ASNPwt, linear regression
  decrease of kcat/Km in the presence of sucrose alone: 40 fold
[1]; sucrose varied between 0 and 600 mM
  saturation with sucrose: could not be saturated
[2]
  increase of the efficiency of the mutant compared to ASNPwt: 130 fold
[3]
  glucosylation of acceptor D-GlcNHTCA: > 95%
[4]
  V250mM (initial rate of acceptor consumption): 6690 µmol/min/g
[5]
  glucosylation of acceptor β-D-GlcpNAc-OMe: 65-70%
[6]
  glucosylation of acceptor β-D-GlcpNAc-OAll: > 95%
[7]
  glucosylation of acceptor α-D-GlcpNAc-OMe: > 95%
[8]; 250 mM sucrose
  V250mM (initial rate of sucrose consumption): 110 µmol/min/g
[8]; sucrose donor alone
  behaviour (at high concentration): no kinetic saturation; also recorded: linear
